Consider 2 proteins from publication PMC13094992, “Genetic complementation reveals structure-function links in nodavirus RNA replication complex crowns” (PLOS Pathogens, 2026).

This data set concerns the molecule itself. As to the kind of experiment: negative-stain electron microscopy (2D classification, 3D reconstruction).

Substitutions are numbered along the chain they refer to. Names and notes keep the numbering of the source.

B1: FHV protein A H93A, C-terminal alfa tag (natural protein)
chain: MTLKVILGEHQITRTELLVGIATVSGCGAVVYCISKFWGYGAIAPYPQSGGNRVTRALQRAVIDKTKTPIETRFYPLDSLRTVTPKRVADNGAAVSGAVRDAARRLIDESITAVGGSKFEVNPNPNSSTGLRNHFHFAVGDLAQDFRNDTPADDAFIVGVDVDYYVTEPDVLLEHMRPVVLHTFNPKKVSGFDADSPFTIKNNLVEYKVSGGAAWVHPVWDWCEAGEFIASRVRTSWKEWFLQLPLRMIGLEKVGYHKIHHCRPWTDCPDRALVYTIPQYVIWRFNWIDTELHVRKLKRIEYQDETKPGWNRLEYVTDKNELLVSIGREGEHAQITIEKEKLDMLSGLSATQSVNARLIGMGHKDPQYTSMIVQYYTGKKVVSPISPTVYKPTMPRVHWPVTSDADVPEVSARQYTLPIVSDCMMMPMIKRWETMSESIERRVTFVANDKKPSDRIAKIAETFVKLMNGPFKDLDPLSIEETIERLNKPSQQLQLRAVFEMIGVKPRQLIESFNKNEPGMKSSRIISGFPDILFILKVSRYTLAYSDIVLHAEHNEHWYYPGRNPTEIADGVCEFVSDCDAEVIETDFSNLDGRVSSWMQRNIAQKAMVQAFRPEYRDEIISFMDTIINCPAKAKRFGFRYEPGVGVKSGSPTTTPHNTQYNGCVEFTALTFEHPDAEPEDLFRLIGPKCGDDGLSRAIIQKSINRAAKCFGLELKVERYNPEIGLCFLSRVFVDPLATTTTIQDPLRTLRKLHLTTRDPTIPLADAACDRVEGYLCTDALTPLISDYCKMVLRLYGPTASTEQVRNQRRSRNKEKPYWLTCDGSWPQHPQDAHLMKQVLIKRTAIDEDQVDALIGRFAAMKDVWEKITHDSEESAAACTFDEDGVAPNSVDESLPMLNDAKQTRANPGTSRPHSNGGGSSHGNELPRRTEQRAQGPRQPARLPKQGKTNGKSDGNITAGETQRGGIPRGKGPRGGKTNTRRTPPKAGAQPQPSNNRK
notes: also called RNA capping null mutant H93A; not shown: ALFA tag, C-terminal, kept
For the protein B1, the binding result was “binds”.

B2: FHV protein A D692E, C-terminal alfa tag (natural protein)
chain: B1 chain with A93H, D692E
notes: also called RNA polymerase null mutant D692E; not shown: ALFA tag, C-terminal, kept
With B2, the binding result was “binds”.
